We go through four molecules from US20250018014A1, “METHOD FOR TREATING AND/OR PREVENTING REGNASE-1-RELATED DISEASE” (OSAKA UNIVERSITY, priority 2018, published 2025).

In assay [1] the test system is Regnase-1 phosphorylation upon IL-17A stimulation in MEF. The assay is described as follows: Immunoblot analysis of Regnase-1 in wild-type MEFs stimulated with IL-17 in the presence of BX795. The class given is cell-based, mouse. The following applies: BX795 (50 μM). From the text: The two arrows indicate the phosphorylated form (upper) and unphosphorylated form (lower) of Regnase-1.
To identify the kinase responsible for Regnase-1 phosphorylation in the IL-17A signaling pathway, the inventors investigated a series of MEFs lacking TBK1, IKKi, TBK1/IKKi, Act1, IKKa/IKKβ, or IRAK1/IRAK2. […] To investigate whether TBK1 and IKKi directly phosphorylate Regnase-1, the present inventors prepared recombinant Regnase-1 purified from a MEF cell line stably expressing FLAG-tagged Regnase-1. Phosphorylation of recombinant Regnase-1 by recombinant TBK1 and/or IKKi under in vitro conditions was detected as an electrophoretic mobility shift pattern by immunoblotting and ^32P autoradiography (FIG. 12-2D). […] The phosphorylation pattern of Regnase-1 by IRAK appeared to be similar to that by TBK1 and IKKi, but Regnase-1 phosphorylation occurred in IRAK1/IRAK2 double-deficient MEF (FIG. 12-2E). In contrast, Regnase-1 phosphorylation in response to IL-1β occurred in TBK1/IKKi double-deficient MEF (FIG. 12-3J).
(In western blotting, separated proteins are transferred to a membrane and probed.)

Assay [2] has as its system appearance of non-phosphorylated Regnase-1 in MEF. Put plainly: Immunoblot analysis of Regnase-1 in MEFs during the recovery phase after IL-17A stimulation. The class given is cell-based, mouse. The note with it: after IL-17A (50 ng/ml) one hour; cycloheximide and okadaic acid (0.5 μM). The procedure: Total mRNA was prepared from cells treated with doxycycline for 0 to 4 hours, and then subjected to Northern blotting using [^32P] labelled probes. […] Cells were treated with IL-17A (50 ng/ml) for one hour, and subsequently incubated in a medium with no additives (control), a medium containing cycloheximide (100 μM), or a medium containing both cycloheximide and okadaic acid (0.5 μM) for 0 to 240 minutes. […] The qPCR data (A, B, and E) were collected from four independent experiments. The error bars represent mean±SEM. ***P<0.005.
Next, the present inventors investigated the mechanism of target mRNA suppression in Regnase-1AA/AA cells. As described above, suppression of target mRNA is more enhanced at later stages of IL-17A stimulation. The present inventors used immunoblot analysis of phosphorylated and non-phosphorylated Regnase-1 during the recovery phase after the completion of IL-17A stimulation. […] The increase in the amount of non-phosphorylated Regnase-1 protein was enhanced much more strongly in Regnase-1AA/AA MEF than in wild type cells.

The test system of assay [3] is IL-6 mRNA stability in Regnase-1AA/AA MEF. The assay is described as follows: qPCR analysis of IL-6 mRNA levels in Regnase-1AA/AA MEFs after TNF-α and IL-17A, with ActD. The class given is cell-based, mouse. The note with it: ActD and okadaic acid (0.5 μM). On the technique in general: Quantitative PCR measures a nucleic acid by following its amplification.
In assay [4] the target is T1, Regnase-1 phosphorylation by IKKβ (Homo sapiens, UniProt Q5D1E8).
T1 construct: GST (N, cleaved yes); made in house; host or cells: Expi293 cells
T1 sequence (Q5D1E8 1-599): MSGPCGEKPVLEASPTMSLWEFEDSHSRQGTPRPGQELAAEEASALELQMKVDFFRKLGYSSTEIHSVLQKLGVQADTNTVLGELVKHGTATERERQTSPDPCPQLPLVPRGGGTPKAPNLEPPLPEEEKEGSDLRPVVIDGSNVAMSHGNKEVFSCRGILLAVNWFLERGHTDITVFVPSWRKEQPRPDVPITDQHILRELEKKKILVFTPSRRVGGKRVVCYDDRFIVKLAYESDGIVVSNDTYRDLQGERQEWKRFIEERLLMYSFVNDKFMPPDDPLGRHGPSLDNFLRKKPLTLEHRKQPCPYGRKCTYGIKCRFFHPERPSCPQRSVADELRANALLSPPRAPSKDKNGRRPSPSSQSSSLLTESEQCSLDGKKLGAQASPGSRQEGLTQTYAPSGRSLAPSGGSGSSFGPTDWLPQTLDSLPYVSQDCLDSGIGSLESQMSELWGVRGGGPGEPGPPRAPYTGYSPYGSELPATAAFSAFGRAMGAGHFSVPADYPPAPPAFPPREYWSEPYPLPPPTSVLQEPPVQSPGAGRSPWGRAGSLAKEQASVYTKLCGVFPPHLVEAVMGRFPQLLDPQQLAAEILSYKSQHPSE
The assay is described as follows: Inhibitory activity of anti-Regnase-1 antibodies against Regnase-1 phosphorylation by IKKβ (Phos-tag gel, western blotting). The class given is biochemical. The note with it: antibody at final concentrations of 16.7 μg/mL and 5.0 μg/mL; relative to Control group. The procedure: To a solution (ATP buffer) containing Kinase Assay Buffer III (manufactured by SignalChem) supplemented with 2 mM DTT, 100 μM sodium vanadate, 2 mM manganese chloride, and 15 μM ATP, dephosphorylated Regnase-1 was mixed at 150 nM. Four microliters of this solution and 4 μL of HEPES Buffered Saline containing 50 μg/mL or 15 μg/mL of anti-Regnase-1 antibody were mixed, and this was allowed to react for one hour. This reaction solution was mixed with 4 μL of ATP buffer containing 150 nM of each kinase (IKKβ or TBK1), and further reacted for one hour. After the reaction, 4 μL of 4× Laemmli Sample buffer (manufactured by Bio-Rad) was added and this mixture was incubated at 95° C. for five minutes for protein denaturation treatment. This sample was ice-cooled for three minutes, and 10 μL of it was added to SuperSep Phos-tag 7.5% 17 wells (manufactured by Wako) placed in EasySeparator (manufactured by Wako). […] Chemiluminescence was detected using ImageQuant LAS4000 mini (manufactured by GE Healthcare).
A band for phosphorylated Regnase-1 was detected due to treatment with each kinase (FIG. 33A). Band densities were measured with Image Quant-TL (manufactured by GE Healthcare). The relative value for the band density of the sample to which each compound was added was calculated, considering the band density of the kinase-added sample of the Control group, to which no compound was added, as 1. […]

Assay [5] deals with T2, FL_Reg1 (human full-length Regnase-1) (Homo sapiens, UniProt Q5D1E8).
T2 construct: made in house; host or cells: Expi293 cells
T2 sequence (Q5D1E8 1-599): T1 sequence (Q5D1E8 1-599)
Put plainly: Binding of anti-non-phosphorylated Regnase-1 peptide antibodies to bead-bound full length human Regnase-1 (iQue screener). The following applies: streptavidin-immobilized beads; histograms FIG. 32. The procedure: (§1) • Biotin-Conjugated FL_Reg1, Biotin-Conjugated Peptide • […], biotin-conjugated peptide • AFPPREYWSEPYPLPPPTC-NH2, and biotinylated BSA (Sigma, A8549) were each bound to streptavidin-immobilized beads.
(§2) These beads were mixed with each anti-Regnase-1 antibody, and they were allowed to react. Thereafter, Anti-Rabbit IgG1 Alexa488 (molecular probes, A21244) was mixed and reacted, and analysis was performed with iQue screener PLUS (intellicyt). Data was analyzed with FlowJo ver10.

The target in assay [6] is T3, Peptide 1 ([…]), partial peptide of human Regnase-1 (Homo sapiens, UniProt Q5D1E8).
T3 construct: […], biotin-conjugated peptide; made in house; host or cells: chemical synthesis
The assay is described as follows: Binding of anti-non-phosphorylated Regnase-1 peptide antibodies to bead-bound Peptide 1 (iQue screener). The following applies: streptavidin-immobilized beads; histograms FIG. 32. The procedure: as §1, §2

Positions count from the first letter of the chain named. Entries after “also recorded” stand apart in the source; their conditions may differ.

Consider `O=C(NCCCNc1nc(Nc2cccc(NC(=O)N3CCCC3)c2)ncc1I)c1cccs1` [BX795], for which the “Regnase-1 phosphorylation upon IL-17A stimulation” value in assay [1] is on record as “inhibited Regnase-1 phosphorylation”.

For `C=C1[C@@H](O)[C@@H]2O[C@]3(CC[C@H](/C=C/[C@@H](C)[C@@H]4CC(C)=C[C@@]5(O[C@H](C[C@@](C)(O)C(=O)O)CC[C@H]5O)O4)O3)CC[C@H]2O[C@@H]1[C@@H](O)C[C@H](C)[C@H]1O[C@@]2(CCCCO2)CC[C@H]1C` [okadaic acid], the “appearance of non-phosphorylated Regnase-1 during the recovery phase” value in assay [2] is “non-phosphorylated Regnase-1 did not appear”. In addition, the “IL-6 mRNA stability / half-life” value in assay [3] is “IL-6 mRNA stability was also enhanced; also recorded: dramatic increase in the half-life of IL-6 mRNA”.

B1: REA0023: anti-Regnase-1 antibody; heavy chain SEQ ID NO: 20, light chain SEQ ID NO: 21 (antibody)
heavy: QSLEESGGDLVKPGASLTLTCTDAGFSFSGVYWMHWVRQAPGKGLEWIACINAGSSGSTYYASWAKGRFTISKPSSTTVTLQMTSLTVADTATYFCARSFTLWGPGTLVTVSSGQPKAPSVFPLAPCCGDTPSSTVTLGCLVKGYLPEPVTVTWNSGTLTNGVRTFPSVRQSSGLYSLSSVVSVTSSSQPVTCNVAHPATNTKVDKTVAPSTCSKPTCPPPELLGGPSVFIFPPKPKDTLMISRTPEVTCVVVDVSQDDPEVQFTWYINNEQVRTARPPLREQQFNSTIRVVSTLPITHQDWLRGKEFKCKVHNKALPAPIEKTISKARGQPLEPKVYTMGPPREELSSRSVSLTCMINGFYPSDISVEWEKNGKAEDNYKTTPAVLDSDGSYFLYNKLSVPTSEWQRGDVFTCSVMHEALHNHYTQKSISRSPGK
light: AVVTQTPSSVSAAVGGTVTIKCQSSQSVGNNNYLAWFQQKPGQPPKLLIYSASTLASGVPSRFSGSGSGTQFTLTISGVQCDDAATYYCLGGYDGDGEAFYVFGGGTEVVVKGDPVAPTVLIFPPAADQVATGTVTIVCVANKYFPDVTVTWEVDGTTQTTGIENSKTPQNSADCTYNLSSTLTLTSTQYNSHKEYTCKVTQGTTSVVQSFNRGDC
On to B1, for which, in assay [4], the “density of the phosphorylated Regnase-1 band in IKKβ treatment” value is on record as “decreased”. Moreover, in assay [5], the “binding to FL_Reg1 compared with biotinylated BSA” value is “bound more strongly”. Moreover, the “binding to Peptide 1 compared with biotinylated BSA” value in assay [6] is on record as “bound more strongly”.

B2: REA0027: anti-Regnase-1 antibody; heavy chain SEQ ID NO: 22, light chain SEQ ID NO: 23 (antibody)
heavy: B1 heavy with D23A, A24S, S27G, G30S, V31S, G57T, S58K, R98W, T101N
light: B1 light with Y33W
For the molecule B2, the “density of the phosphorylated Regnase-1 band in IKKβ treatment” value in assay [4] is on record as “decreased”. Also, the “binding to FL_Reg1 compared with biotinylated BSA” value in assay [5] is “bound more strongly”. Also, the “binding to Peptide 1 compared with biotinylated BSA” value in assay [6] is on record as “bound more strongly”.
